Results from the supplement of paper PMC6755084.

B1: F1*; the commonest letter at each place (parent)
chain: GAGACCGCAACTGAAAAGTTGTTATCACTTGTCGTAAGACACTTTGGATGGGTTGAAGTTCTGCACGTAGAAGCAAAAGGC

Variants of: B1
Assay: fraction ligated after 30 min (ligated reads / total reads); higher = more ligase activity
Conditions: with F1*sub RNA substrate (template-directed ligation), 42 °C
Experimental: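 Chip-synthesised pool of F1* ligase ribozyme variants (all single and double substitutions, single, double and triple deletions in the catalytic core and GAA bulge, plus designed variants) was transcribed with T7 and reacted as a pool with excess substrate F1*sub for 30 min at 42 C in 50 mM EPPS pH 8.5, 25 mM MgCl2. Ligated and unligated bands were separated by PAGE, barcoded by RT and deep sequenced; fraction ligated = ligated reads / total reads per variant, relative activity = FL / FL of wild type (0.826). Sequences are the DNA template of the ribozyme.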
Variant GAGACCGCAACTGAAAAGTTGTTACCACTTGTTGTAAGACACTTTGGATGGGTTGAAGTTCTGCACGTAGAAGCAAAAGGC [T25C C33T] has a fraction ligated of 0.786.
With GAGACCGCAACTGAAAAGTTGTTACCACTTGTGGTAAGACACTTTGGATGGGTTGAAGTTCTGCACGTAGAAGCAAAAGGC [T25C C33G] the fraction ligated was 0.144.
In the case of GAGACCGCAACTGAAAAGTTGTTACCACTTGTAGTAAGACACTTTGGATGGGTTGAAGTTCTGCACGTAGAAGCAAAAGGC [T25C C33A], the fraction ligated is reported as 0.77.
GAGACCGCAACTGAAAAGTTGTTACCATTTGTCGTAAGACACTTTGGATGGGTTGAAGTTCTGCACGTAGAAGCAAAAGGC [T25C C28T] showed a fraction ligated of 0.803.
In the case of GAGACCGCAACTGAAAAGTTGTTACCAATTGTCGTAAGACACTTTGGATGGGTTGAAGTTCTGCACGTAGAAGCAAAAGGC [T25C C28A], the fraction ligated is reported as 0.684.
Variant GAGACCGCAACTGAAAAGTTGTTACCAGTTGTCGTAAGACACTTTGGATGGGTTGAAGTTCTGCACGTAGAAGCAAAAGGC [T25C C28G] has a fraction ligated of 0.78.
GAGACCGCAACTGAAAAGTTGTTACCACTTGTCGTAAGACACTTTGGATGGGTTGTAGTTCTGCACGTAGAAGCAAAAGGC [T25C A56T] gave a fraction ligated of 0.107.
GAGACCGCAACTGAAAAGTTGTTACCACTTGTCGTAAGACACTTTGGATGGGTTGCAGTTCTGCACGTAGAAGCAAAAGGC [T25C A56C] was tested, and the fraction ligated was 0.0931.
Variant GAGACCGCAACTGAAAAGTTGTTACCACTTGTCGTAAGACACTTTGGATGGGTTGGAGTTCTGCACGTAGAAGCAAAAGGC [T25C A56G] has a fraction ligated of 0.0517.
For GAGACCGCAACTGAAAAGTTGTTACCACTTGTCGTAAGATACTTTGGATGGGTTGAAGTTCTGCACGTAGAAGCAAAAGGC [T25C C40T], the fraction ligated was 0.819.
Work on GAGACCGCAACTGAAAAGTTGTTACCACTTGTCGTAAGAAACTTTGGATGGGTTGAAGTTCTGCACGTAGAAGCAAAAGGC [T25C C40A] yielded a fraction ligated of 0.524.
With GAGACCGCAACTGAAAAGTTGTTACCACTTGTCGTAAGAGACTTTGGATGGGTTGAAGTTCTGCACGTAGAAGCAAAAGGC [T25C C40G] the fraction ligated was 0.378.
GAGACCGCAACTGAAAAGTTGTTACCACTTGTCGTAAGACACTCTGGATGGGTTGAAGTTCTGCACGTAGAAGCAAAAGGC [T25C T44C] gave a fraction ligated of 0.765.
In the case of GAGACCGCAACTGAAAAGTTGTTACCACTTGTCGTAAGACACTGTGGATGGGTTGAAGTTCTGCACGTAGAAGCAAAAGGC [T25C T44G], the fraction ligated is reported as 0.0249.
In the case of GAGACCGCAACTGAAAAGTTGTTACCACTTGTCGTAAGACACTATGGATGGGTTGAAGTTCTGCACGTAGAAGCAAAAGGC [T25C T44A], the fraction ligated is reported as 0.788.
In the case of GAGACCGCAACTGAAAAGTTGTTACTACTTGTCGTAAGACACTTTGGATGGGTTGAAGTTCTGCACGTAGAAGCAAAAGGC [T25C C26T], the fraction ligated is reported as 0.813.
With GAGACCGCAACTGAAAAGTTGTTACGACTTGTCGTAAGACACTTTGGATGGGTTGAAGTTCTGCACGTAGAAGCAAAAGGC [T25C C26G] the fraction ligated was 0.0807.
Work on GAGACCGCAACTGAAAAGTTGTTACAACTTGTCGTAAGACACTTTGGATGGGTTGAAGTTCTGCACGTAGAAGCAAAAGGC [T25C C26A] yielded a fraction ligated of 0.0548.
GAGACCGCAACTGAAAAGTTGTTACCACTTGTCTTAAGACACTTTGGATGGGTTGAAGTTCTGCACGTAGAAGCAAAAGGC [T25C G34T] showed a fraction ligated of 0.786.
With GAGACCGCAACTGAAAAGTTGTTACCACTTGTCATAAGACACTTTGGATGGGTTGAAGTTCTGCACGTAGAAGCAAAAGGC [T25C G34A] the fraction ligated was 0.799.
Variant GAGACCGCAACTGAAAAGTTGTTACCACTTGTCCTAAGACACTTTGGATGGGTTGAAGTTCTGCACGTAGAAGCAAAAGGC [T25C G34C] has a fraction ligated of 0.795.
GAGACCGCAACTGAAAAGTTGTTACCACTTGTCGTAAGACACTTTGGATCGGTTGAAGTTCTGCACGTAGAAGCAAAAGGC [T25C G50C] was tested, and the fraction ligated was 0.379.
With GAGACCGCAACTGAAAAGTTGTTACCACTTGTCGTAAGACACTTTGGATTGGTTGAAGTTCTGCACGTAGAAGCAAAAGGC [T25C G50T] the fraction ligated was 0.639.
GAGACCGCAACTGAAAAGTTGTTACCACTTGTCGTAAGACACTTTGGATAGGTTGAAGTTCTGCACGTAGAAGCAAAAGGC [T25C G50A] was tested, and the fraction ligated was 0.326.
GAGACCGCAACTGAAAAGTTGTTACCACTTGTCGTAAGACACTTCGGATGGGTTGAAGTTCTGCACGTAGAAGCAAAAGGC [T25C T45C] gave a fraction ligated of 0.0655.
GAGACCGCAACTGAAAAGTTGTTACCACTTGTCGTAAGACACTTAGGATGGGTTGAAGTTCTGCACGTAGAAGCAAAAGGC [T25C T45A] showed a fraction ligated of 0.295.
GAGACCGCAACTGAAAAGTTGTTACCACTTGTCGTAAGACACTTTGGATGGGTTGAGGTTCTGCACGTAGAAGCAAAAGGC [T25C A57G] was tested, and the fraction ligated was 0.711.
Variant GAGACCGCAACTGAAAAGTTGTTACCACTTGTCGTAAGACACTTTGGATGGGTTGACGTTCTGCACGTAGAAGCAAAAGGC [T25C A57C] has a fraction ligated of 0.563.
For GAGACCGCAACTGAAAAGTTGTTACCACTTGTCGTAAGACACTTTGGATGGGTTGATGTTCTGCACGTAGAAGCAAAAGGC [T25C A57T], the fraction ligated was 0.682.
Work on GAGACCGCAACTGAAAAGTTGTTACCACTTGTCGTAAGACAATTTGGATGGGTTGAAGTTCTGCACGTAGAAGCAAAAGGC [T25C C42A] yielded a fraction ligated of 0.776.
Work on GAGACCGCAACTGAAAAGTTGTTACCACTTGTCGTAAGACATTTTGGATGGGTTGAAGTTCTGCACGTAGAAGCAAAAGGC [T25C C42T] yielded a fraction ligated of 0.804.
GAGACCGCAACTGAAAAGTTGTTACCACTTGTCGTAAGACAGTTTGGATGGGTTGAAGTTCTGCACGTAGAAGCAAAAGGC [T25C C42G] was tested, and the fraction ligated was 0.769.
For GAGACCGCAACTGAAAAGTTGTTACCACTTCTCGTAAGACACTTTGGATGGGTTGAAGTTCTGCACGTAGAAGCAAAAGGC [T25C G31C], the fraction ligated was 0.53.
GAGACCGCAACTGAAAAGTTGTTACCACTTTTCGTAAGACACTTTGGATGGGTTGAAGTTCTGCACGTAGAAGCAAAAGGC [T25C G31T] gave a fraction ligated of 0.546.
